{"source": "patent US20200131474A1", "about": "“METHODS AND COMPOSITIONS FOR OCULAR CELL THERAPY” (Novartis AG, priority 2018, published 2020)", "molecules": {"B1": {"name": "1-CR004366: gRNA targeting B2M (Dharmacon); targeting domain GAGUAGCGCGAGCACAGCUA (SEQ ID NO: 108); sgRNA SEQ ID NO: 120 (nucleic acid)", "guide": "GAGUAGCGCGAGCACAGCUAGUUUUAGAGCUAGAAAUAGCAAGUUAAAAUAAGGCUAGUCCGUUAUCAACUUGAAAAAGUGGCACCGAGUCGGUGCUUUU", "modifications": "listed as RNA, chemistry not given here"}}, "key": {"[1]": {"test_system": "beta-2-microglobulin gene", "test": "CRISPR/Cas9-mediated deletion of B2M in LSCs by nucleofection, FACS analysis", "type": "cell-based, human", "settings": "Cas9 protein (SEQ ID NO: 107):sgRNA 1:10 nucleofection, LSCs passage 0, FACS", "description": "The sgRNA ID SEQ NO 120 was tested for the ability to reduce or eliminate expression of B2M in LSCs using a nucleofection approach as follows.\nLSCs at passage 0 were trypsinized with TryLE™Express Enzym (ThermoFisher, Cat #12605010) for 15 min in 5% CO2 at 37° C. After scraping the cells, the reaction was stopped by using cell culture medium containing 10% Serum and transferred to a falcon tube. After counting cells using Vi-cell 200′000 cells were prepared per reaction by transferring 200′000 cells in single tubes and centrifuged at 1000 rpm for 5 min.\nThe supernatant was aspirated using manually pipetting to avoid cell loss and the cells were resuspended in the Stem cell nucleofector solution II (Lonza, Cat #VPH-5022). Resuspend cells in nucleofector solution immediately before adding the Cas9 protein:sgRNA mixture. A stock of 100 μM (3.23 μg/μl) was prepared resuspending 5.1 nanomoles of single-guideRNA (sgRNA) in 51 μl 10 mM Tris buffer pH7.4. […]\nIn order to prevent cells sticking to the wall, collection tubes were filled with FACS buffer for 30 minutes before the sort and aspirated before adding the collection medium. […] FACS data were analyzed using BD FACSDiva software and FlowJo software."}, "[2]": {"test_system": "genomic DNA purified from male human peripheral blood mononuclear cells", "test": "Biochemical method for potential off-target genomic sites cleaved by Cas9 and B2M guides", "settings": "guide concentration of 64 nM", "description": "A biochemical method (See, e.g., Cameron et al., Nature Methods. 6, 600-606; 2017) was used to determine potential off-target genomic sites cleaved by Cas9 and selected B2M guides."}, "[3]": {"test_system": "CD8+ T-cells", "test": "LSC/T-cell reaction assay (gene edited LSCs co-cultured with CD8+ T-cells)", "type": "cell-based, human", "settings": "B2M/HLA-Class I negative edited LSCs co-cultured 10 days with CD8+ T-cells from 4 donors", "description": "An LSC/T-cell assay was performed in flat bottom 96well synthemax coated plates in duplicates and incubated in 5% CO2 at 37° C. for 10 days. RPMI-1640 supplemented with HEPES (100 μM), non-essential aas (10×), sodium pyruvate (10 mM), 2-Mercapthoethanol (10×), 10% FBS and 1% Penicillin-Streptomycin (Gibco by Life Technologies) was used as medium for co-culture. Alternatively, RPMI-1640 supplemented with HEPES (10 mM), non-essential aas (1×), sodium pyruvate (1 mM), 2-Mercapthoethanol (1×), 10% FBS and 1% Penicillin-Streptomycin (Gibco by Life Technologies) was used as medium for co-culture.\nOne day before co-culture, LSCs (stimulator cells) were passed and cultured to a confluency of around 70% (30′000-50′000 cells) and cultured with LSC medium including compound. On day two, peripheral blood mononuclear cells (PBMC) were separated using EDTA blood with the Ficoll-Paque method (GE Healthcare Life Sciences, cat #17-1440-03). […]\nAfter 10 days, CD8+ cells were transferred to a U-bottomed 96-well plate and washed 3 times using autoMAC rinsing solution (Miltenyi Biotec, Cat #130-091-222) including MACS BSA stock solution (Miltenyi Biotec, Cat #130-091-376). Cells were measured on a BD LSRFortessa X-20. FACS data were analyzed using BD FACSDiva software and FlowJo software."}, "[4]": {"test_system": "potential off-target sites", "test": "Off-target activity detection in limbal stem cells by targeted PCR and NGS", "type": "cell-based, human", "settings": "edited LSCs vs non-edited PBMCs; positive sites of sequenced loci", "description": "Potential CRISPR/Cas9-mediated cutting sites identified above were evaluated using targeted PCR and NGS in genome-edited expanded LSCs.\nSelected sgRNAs (SEQ ID NO: 120, 162, 166, 167, 171, and 175) were further analyzed by amplicon sequencing in edited and non-edited cells. Primers flanking the potential off-target sites for each guide were used to detect indels by NGS analysis in edited LSCs and non-edited peripheral blood mononuclear cells. Sites that had either (1) a difference in mean indel percentage between edited and unedited cells greater than 0.5%; or (2) a p value less than 0.05 between edited and unedited indel were further analyzed. NGS sequence reads for such sites were assessed for characteristic indel patterns near the putative Cas9 cut site."}}, "data": [{"molecule": "B1", "values": [{"measurement": "LSCs with deletion of B2M and elimination of HLA A, B and C (cells not expressing B2M)", "setting": "[1]", "result": "about 70%"}, {"measurement": "off-target Site_Count", "setting": "[2]", "result": 69}, {"measurement": "T-cell immunoresponse", "setting": "[3]", "result": "almost completely eliminated"}, {"measurement": "Number of sites positive for off-target activity in LSCs", "setting": "[4]", "result": "zero"}]}]}
